Measured values published in patent US7988958B2, “Enterococcus and Streptococcus strains and bacteriocins” (The United States of America as represented by the …, priority 2005, dated 2011).
“And” between values parts separate entries of the source, which are not always exact repeats. Identical values can stand only once. Like-named read-outs stand apart in the source and are kept apart here.

Columns and labels:
L. monocytogenes 9-72 = assay: MIC by spot test; type: cell-based
Y. enterolitica 09 = assay: MIC by spot test; type: cell-based, Y. enterocolitica
S. gallinarum pullorum = assay: MIC by spot test; type: cell-based
E. coli O157:H7 lab. 39 = assay: MIC by spot test; type: cell-based
C. jejuni L4 = assay: MIC by spot test; type: cell-based
Campylobacter spp. B-3 = assay: MIC by agar diffusion; type: cell-based; conditions: Campylobacter spp. strain B-3
Protocol: (§1) The susceptibility of Campylobacter spp. to purified preparations of bacteriocins 760 and E50-52 was determined using strains isolated from broiler chicks as described above in Example 1. Antagonistic activity of the bacteriocins was assessed on the basis of minimum inhibitory concentrations (MICs) which were determined by agar diffusion. […] All the tested bacteriocins are highly antagonistic to the Campylobacter spp. strains.

Campylobacter spp. P-28 = assay: MIC by agar diffusion; type: cell-based; conditions: Campylobacter spp. strain P-28
Protocol: as §1

Campylobacter spp. P-32 = assay: MIC by agar diffusion; type: cell-based; conditions: Campylobacter spp. strain P-32
Protocol: as §1

Campylobacter spp. P-31 = assay: MIC by agar diffusion; type: cell-based; conditions: Campylobacter spp. strain P-31
Protocol: as §1

Campylobacter spp. Cez-4 = assay: MIC by agar diffusion; type: cell-based; conditions: Campylobacter spp. strain Cez-4
Protocol: as §1

[1] = tested on: Campylobacter spp. Ind18/2; assay: MIC by agar diffusion; type: cell-based; conditions: Campylobacter spp. strain Ind18/2
Protocol: as §1

Campylobacter spp. F-1 = assay: MIC by agar diffusion; type: cell-based; conditions: Campylobacter spp. strain F-1
Protocol: as §1

Campylobacter spp. G-1 = assay: MIC by agar diffusion; type: cell-based; conditions: Campylobacter spp. strain G-1
Protocol: as §1

C. jejuni NCTC 11168 [2] = assay: Spot test; type: cell-based, Campylobacter jejuni; conditions: for Inhibiting activity in Spot Test: crude antimicrobial preparation (CAP), C. jejuni NCTC 11168; for Inhibiting Activity, Spot Test: purified bacteriocin, C. jejuni
E. coli O157:H7 904 [3] = assay: IEF gel tested for growth inhibition of test strain; type: cell-based; conditions: for Inhibiting Activity measured by IEF: CAP, active band, E. coli O157:H7 904; for Inhibiting Activity IEF: purified bacteriocin, E. coli O157:H7
Protocol: (§2) CAPs and bacteriocins were electrophoresed in about 15% […] gel weight, about 1% SDS (9×12 cm) in Tri-glycine buffer. After electrophoresis at about 100 mA for approximately 4 hours, gels were fixed with a solution containing approximately 15% ethanol and approximately 1% acetic acid. The gels were then washed with distilled water for approximately 4 hours. To determine molecular weights of protein fractions, the gel was stained with a solution containing approximately 0.21% Coomassi Blue G-250, about 40% ethanol, and about 7% acetic acid. Washed gels were tested against three target bacteria, C. jejuni NCTC 11168, E. coli 0157:H7 904, and S. enteritidis 204 by the method of Bhunia et al. (Journal of Industrial Microbiology, Volume 2, 319-322, 1987; herein incorporated by reference). The gels were placed in Petri dishes, covered with 5% blood-semi-solid Campylobacter agar (about 0.75%) or semi-solid MPA, and seeded with cells of the test strains. Plates containing C. jejuni were incubated at about 42° C. for approximately 48 hours under microaerobic conditions, E. coli 0157:H7 and S. enteriditidis at about 37° C. for approximately 24 hours. Assessment was based on visualization of zones of the inhibited growth of the test strains in the presence of bacteriocins.
(§3) Specimens of bacteriocins were placed on IEF gels (pH approximately 4.4-10.0) (Novex, San Diego, Calif.). The gels were run at about 100V for about 1 hour, 200V for about 2 hour, and 500V for about 30 minutes in XCM II™ Mini-Cell (Novex). Gels were washed with distilled water for about 4 hours without fixation followed by staining with Coomassie Blue G-250 to determine isoelectric points (pI) of the bacteriocins and their ability to inhibit the growth of the test strains as presented in FIGS. 1 and 2 and in Table 2.

S. enteritidis 204 [4] = assay: as above; type: cell-based; conditions: for Inhibiting Activity measured by IEF: CAP, active band; for Inhibiting Activity IEF: purified bacteriocin
Protocol: as §2, §3

E. coli O157:H7 904 [5] = assay: SDS-PAGE gel overlaid with test strain; type: cell-based; conditions: for Inhibiting Activity measured by SDS-PAGE: CAP, active band, E. coli O157:H7 904; for Inhibiting Activity SDS-PAGE: purified bacteriocin, E. coli O157:H7
Protocol: as §2

S. enteritidis 204 [6] = assay: SDS-PAGE gel overlaid with test strain; type: cell-based; conditions: for Inhibiting Activity measured by SDS-PAGE: CAP, active band; for Inhibiting Activity SDS-PAGE: purified bacteriocin
Protocol: as §2

S. enteritidis 204 [7] = assay: MIC by spot test; type: cell-based
C. jejuni NCTC 11168 [8] = assay: Thermostability and effect of pH on bacteriocin activity (spot test); type: physicochemical, Campylobacter jejuni; conditions: for Antimicrobial activity after treatment: heating to about 90° C.
Sh. dysenteriae = assay: MIC by spot test; type: cell-based
E. coli O157:H7 904 [9] = assay: Spot test; type: cell-based; conditions: for Inhibiting activity in Spot Test: crude antimicrobial preparation (CAP), E. coli O157:H7 904; for Inhibiting Activity, Spot Test: purified bacteriocin, E. coli O157:H7
C. jejuni = assay: Activity of bacteriocin preparations from culture with and without inducer strain (arbitrary units); type: cell-based, Campylobacter jejuni
E. coli HB101 = assay: MIC by spot test; type: cell-based
S. enteritidis 1 = assay: MIC by spot test; type: cell-based
E. coli O157:H7 OD-3 = assay: MIC by spot test; type: cell-based
C. jejuni NCTC 11168 [10] = assay: Influence of enzymes on bacteriocin activity (spot test); type: physicochemical, Campylobacter jejuni
Citrobacter freundi = assay: MIC by spot test; type: cell-based
S. choleraesuis 434/4 = assay: MIC by spot test; type: cell-based
Y. pseudotuberculosis = type: cell-based
[11] = cultivation with inducer strain
[12] = cultivation without inducer strain

In the case of “Bacteriocin 50-52: bacteriocin produced by Enterococcus durans/faecium/hirae NRRL B-30746 (strain 50-52); amino acid sequence SEQ ID NO 1 (TTKNYGNGVCNSVNWCQCGNVWASCNLATGCAAWLCKLA; listed as Enterococcus faecium)”, the MICs (L. monocytogenes 9-72) is reported as 0.2 µg/mL, the MICs (Y. enterolitica 09) is reported as 0.4 µg/mL and the MICs (S. gallinarum pullorum) is reported as 0.1 µg/mL. The MICs (E. coli O157:H7 lab. 39) was 0.1 µg/mL, the MICs (C. jejuni L4; C. jejuni L-4) was 0.2 µg/mL and the MICs (Campylobacter spp. B-3) was 0.05 µg/mL. It also gave an MICs (Campylobacter spp. P-28) of 0.1 µg/mL, an MICs (Campylobacter spp. P-32) of 0.1 µg/mL and an MICs (Campylobacter spp. P-31) of 0.1 µg/mL. The MICs (Campylobacter spp. Cez-4) was 0.1 µg/mL, the MICs [1] was 0.05 µg/mL and the MICs (Campylobacter spp. F-1) was 0.1 µg/mL. The MICs (Campylobacter spp. G-1) was 0.05 µg/mL, the “Inhibiting activity in Spot Test” value (C. jejuni NCTC 11168 [2]) was 12,800 AU/ml and the “Inhibiting Activity, Spot Test” value (C. jejuni NCTC 11168 [2]) was 12,800 AU/ml. The “Inhibiting Activity measured by IEF” value (E. coli O157:H7 904 [3]) was “band 1”, the “Inhibiting Activity IEF” value (E. coli O157:H7 904 [3]) was “+Band 1” and the “Inhibiting Activity measured by IEF” value (S. enteritidis 204 [4]) was “band 1”. For the same molecule, the “Inhibiting Activity IEF” value (S. enteritidis 204 [4]) was “+Band 1”, the “Inhibiting Activity measured by SDS-PAGE” value (E. coli O157:H7 904 [5]) was “M.W. 3.9 kDa” and the “Inhibiting Activity SDS-PAGE” value (E. coli O157:H7 904 [5]) was “+Band 1”. For the same molecule, the “Inhibiting Activity measured by SDS-PAGE” value (S. enteritidis 204 [6]) was “M.W. 3.9 kDa”, the “Inhibiting Activity SDS-PAGE” value (S. enteritidis 204 [6]) was “+Band 1” and the MICs (S. enteritidis 204 [7]) was 0.2 µg/mL. The “Stability at different values of pH” value (C. jejuni NCTC 11168 [8]; about pH 10) was “became inactive”, the “Antimicrobial activity after treatment” value (C. jejuni NCTC 11168 [8]) was “retained it” and the “Stability at different values of pH” value (C. jejuni NCTC 11168 [8]; pH about 3.0 to about 9.0) was “stable”. For the same molecule, the MICs (Sh. dysenteriae) was 0.4 µg/mL, the “Inhibiting activity in Spot Test” value (E. coli O157:H7 904 [9]) was 3,200 AU/ml and the “Inhibiting Activity, Spot Test” value (E. coli O157:H7 904 [9]) was 6,400 AU/ml. For the same molecule, the “Activity AU/ml” value (C. jejuni; [11]) was 12,800 AU/ml, the “Specific Activity AU/mg” value (C. jejuni; [11]) was 320,000 AU/mg and the “Activity AU/ml” value (C. jejuni; [12]) was 3,200 AU/ml. The “Specific Activity AU/mg” value (C. jejuni; [12]) was 213,333 AU/mg, the MICs (E. coli HB101) was 0.1 µg/mL and the MICs (S. enteritidis 1) was 0.1 µg/mL. For the same molecule, the MICs (E. coli O157:H7 OD-3) was 0.1 µg/mL, the “Antimicrobial activity after treatment” value (C. jejuni NCTC 11168 [10]; treated with beta-chymotrypsin) was “lost their antimicrobial activity” and the “Antimicrobial activity after treatment” value (C. jejuni NCTC 11168 [10]; treated with lipase) was “retained it”. The “Antimicrobial activity after treatment” value (C. jejuni NCTC 11168 [10]; treated with lysozyme) was “retained it”, the “Antimicrobial activity after treatment” value (C. jejuni NCTC 11168 [10]; treated with papain) was “lost their antimicrobial activity” and the “Antimicrobial activity after treatment” value (C. jejuni NCTC 11168 [10]; treated with proteinase K) was “lost their antimicrobial activity”. For the same molecule, the MICs (Citrobacter freundi) was 0.1 µg/mL, the MICs (S. choleraesuis 434/4) was 0.1 µg/mL and the MICs (Y. pseudotuberculosis; Y. pseudotuberculosis) was 0.4 µg/mL.

B1: Bacteriocin 760: bacteriocin produced by Enterococcus durans/faecium/hirae NRRL B-30745 (strain 760); amino acid sequence SEQ ID NO 2 (protein, listed as Streptococcus cricetus)
chain: NRWYCNSAAGGVGGAAVCGLAGYVGEAKENIAGEVRKGWGMAGGFTHNKACKSFPGSGWASG
In the case of B1, the MIC (L. monocytogenes 9-72) is reported as 100 µg/mL, the MIC (Y. enterolitica 09) is reported as 100 µg/mL and the MIC (S. gallinarum pullorum) is reported as 400 µg/mL. For the same molecule, the MIC (E. coli O157:H7 lab. 39) was 1600 µg/mL, the MIC (C. jejuni L4; C. jejuni L4) was 100 µg/mL and the MICs (Campylobacter spp. B-3) was 0.05 µg/mL. For the same molecule, the MICs (Campylobacter spp. P-28) was 0.05 µg/mL, the MICs (Campylobacter spp. P-32) was 0.05 µg/mL and the MICs (Campylobacter spp. P-31) was 0.05 µg/mL. For the same molecule, the MICs (Campylobacter spp. Cez-4) was 0.1 µg/mL, the MICs [1] was 0.05 µg/mL and the MICs (Campylobacter spp. F-1) was 0.05 µg/mL. For the same molecule, the MICs (Campylobacter spp. G-1) was 0.05 µg/mL, the “Inhibiting activity in Spot Test” value (C. jejuni NCTC 11168 [2]) was 51,200 AU/ml and the “Inhibiting Activity, Spot Test” value (C. jejuni NCTC 11168 [2]) was 51,200 AU/ml. For the same molecule, the “Inhibiting Activity measured by IEF” value (E. coli O157:H7 904 [3]) was “band 1”, the “Inhibiting Activity IEF” value (E. coli O157:H7 904 [3]) was “+Band 1” and the “Inhibiting Activity measured by IEF” value (S. enteritidis 204 [4]) was “band 1”. The “Inhibiting Activity IEF” value (S. enteritidis 204 [4]) was “+Band 1”, the “Inhibiting Activity measured by SDS-PAGE” value (E. coli O157:H7 904 [5]) was “M.W. 5.5 kDa” and the “Inhibiting Activity SDS-PAGE” value (E. coli O157:H7 904 [5]) was “+Band 1”. For the same molecule, the “Inhibiting Activity measured by SDS-PAGE” value (S. enteritidis 204 [6]) was “M.W. 5.5 kDa”, the “Inhibiting Activity SDS-PAGE” value (S. enteritidis 204 [6]) was “+Band 1” and the MIC (S. enteritidis 204 [7]) was 200 µg/mL. For the same molecule, the “Stability at different values of pH” value (C. jejuni NCTC 11168 [8]; about pH 10) was “became inactive”, the “Antimicrobial activity after treatment” value (C. jejuni NCTC 11168 [8]) was “retained it” and the “Stability at different values of pH” value (C. jejuni NCTC 11168 [8]; pH about 3.0 to about 9.0) was “stable”. The MIC (Sh. dysenteriae) was 100 µg/mL, the “Inhibiting activity in Spot Test” value (E. coli O157:H7 904 [9]) was 12,800 AU/ml and the “Inhibiting Activity, Spot Test” value (E. coli O157:H7 904 [9]) was 12,800 AU/ml. The “Specific Activity AU/mg” value (C. jejuni) was 160,000 AU/mg and 284,444 AU/mg, the MIC (E. coli HB101) was 100 µg/mL and the MIC (S. enteritidis 1) was 200 µg/mL. For the same molecule, the MIC (E. coli O157:H7 OD-3) was 1600 µg/mL, the “Antimicrobial activity after treatment” value (C. jejuni NCTC 11168 [10]; treated with beta-chymotrypsin) was “lost their antimicrobial activity” and the “Antimicrobial activity after treatment” value (C. jejuni NCTC 11168 [10]; treated with lipase) was “retained it”. The “Antimicrobial activity after treatment” value (C. jejuni NCTC 11168 [10]; treated with lysozyme) was “retained it”, the “Antimicrobial activity after treatment” value (C. jejuni NCTC 11168 [10]; treated with papain) was “lost their antimicrobial activity” and the “Antimicrobial activity after treatment” value (C. jejuni NCTC 11168 [10]; treated with proteinase K) was “lost their antimicrobial activity”. For the same molecule, the MIC (Citrobacter freundi) was 1600 µg/mL, the MIC (S. choleraesuis 434/4) was 400 µg/mL and the MIC (Y. pseudotuberculosis) was 3200 µg/mL.
